# Assay results published in patent US20200299389A1.
# Columns and labels:
# VEGF165 [1] = biological target: VEGF165 (UniProt P15692); assay: ELISA; settings: Fc fusion
# VEGF165 [2] = biological target: VEGF165 (UniProt P15692); assay: cell-based or functional assay
# Chain of VEGF165 (P15692 other isoform, or with tags, fused parts or gaps): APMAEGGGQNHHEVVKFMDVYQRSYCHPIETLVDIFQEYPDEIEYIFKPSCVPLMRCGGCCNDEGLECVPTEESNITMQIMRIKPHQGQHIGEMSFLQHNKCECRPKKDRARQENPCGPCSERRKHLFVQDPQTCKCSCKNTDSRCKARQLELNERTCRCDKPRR
EC50 (VEGF165 [1]) [nM],inhibition of VEGF165-stimulated HUVEC proliferation (IC50) (VEGF165 [2]) [nM],Substance
0.057,,VEGFR-Fc (aflibercept) (from UniProt P17948 129-230; P35968 225-327)
,0.107,VEGFR-Fc (aflibercept) (from UniProt P17948 129-230; P35968 225-327) (Fc fusion)
